# Test results as given in US20230263916A1 (NANOMAB TECHNOLOGY, published 2023).
# Substitutions are numbered along the chain they refer to.
# B1: Nanobody No. 19 (VHH)
# VHH: QVQLQESGGGSVQAGGSLRLSCTASGFTFDDSDSDMGWYRQAPGNECELVSSISSDGSTYYADSVKGRFTISQDNAKNTVYLQMNSLKPEDTAVYYCAAINSGYELGTCESLDYWGRGTQVTVSS
# notes: also called 19; not shown: tags (HA, His) implied by anti-HA detection and nickel column
# B2: Nanobody No. 24 (VHH)
# VHH: B1 VHH with G16E, S17T
# notes: also called 24; not shown: tags (HA, His) implied by anti-HA detection and nickel column
# B3: Nanobody No. 25 (VHH)
# VHH: B1 VHH with G16E, S17T, L87P
# notes: also called 25; not shown: tags (HA, His) implied by anti-HA detection and nickel column
# B4: Nanobody No. 21 (VHH)
# VHH: B1 VHH with S11L, A14P, G15R
# notes: also called 21; not shown: tags (HA, His) implied by anti-HA detection and nickel column
# B5: Nanobody No. 17 (VHH)
# VHH: QVQLQESGGGSVQAGGSLRLSCTASGFTFDDSDMGWYRQAPGNECELVSTISSDGSTYYADSVKGRFTISQDNAKNTVYLQMNSLKPEDTAVYYCADVQIPYGLGTCESLDYWGRGTQVTVSS
# notes: camel VHH from pMECs phage display vector; also called Antibody no; 17; not shown: tags (HA, His) implied by anti-HA detection and nickel column
# B6: Nanobody No. 26 (VHH)
# VHH: QVQLQESGGGSVQAGETLRLSCTASGFTFDDSDMGWYRQAPGNECELVSSISSDGSTYYADSVKGRFTISQDNAKNTVYLQMNSLKPEDTGVYYCAAEGHRYELGTCAALDYWGRGTQVTVSS
# notes: camel VHH from pMECs phage display vector; also called Antibody no; 26; not shown: tags (HA, His) implied by anti-HA detection and nickel column
# B7: Nanobody No. 23 (VHH)
# VHH: QVQLQESGGGSVQAGGSLKLSCSASGFTFDDTDMGWYRQAPGNECELVSTISSDGTTYYTDSVKGRFTISQDNAKNTVYLQMNSLKPEDTAVYYCAAINSGYELGTCESLDYWGRGTQVTVSS
# notes: camel VHH from pMECs phage display vector; also called Antibody no; 23; not shown: tags (HA, His) implied by anti-HA detection and nickel column
# B8: Nanobody No. 13 (VHH)
# VHH: QVQLQESGGGSVQAGETLRLSCTASGFTFDDSDMGWYRQAPGNECELVSTISADGSTFYADSVKGRFTISQDNAKNTVYLQMNSLKPEDTAVYYCASPENEYELGTCEALDYWGQGTQVTVSS
# notes: camel VHH from pMECs phage display vector; also called Antibody no; 13; not shown: tags (HA, His) implied by anti-HA detection and nickel column
# B9: Nanobody No. 22 (VHH)
# VHH: B7 VHH with K19R, S23T, T32S, T50R, S53R, T60A, A97D
# notes: camel VHH from pMECs phage display vector; also called Antibody no; 22; not shown: tags (HA, His) implied by anti-HA detection and nickel column
# B10: Nanobody No. 4 (VHH)
# VHH: QVQLQESGGGLVQPGGSLRLSCTASRFTFDDSDMAWYRQAPGNECELVSIISSDGSTYYADSVKGRFTISLDNTKSTVYLQMNSLKPEDTAVYYCAAHPLHYELGTCAALDYWGRGTQVTVSS
# notes: not shown: tags (HA, His) implied by anti-HA detection and nickel column
# B11: Nanobody No. 39 (VHH)
# VHH: QVQLQESGGGSVQAGGSLRLSCAASGYTYTGYCMGWFRQAPGKEREGVATIDSDGDTSYADSVKGRFTISKDNAKNTLYLQMNSLKPEDTAMYYCAADFRRWHLCSSSFREDGMDYWGKGTQVTVSS
# notes: also called 39; not shown: tags (HA, His) implied by anti-HA detection and nickel column
# B12: Nanobody No. 40 (VHH)
# VHH: B11 VHH with G16E, S17T, P41T, S58T, A74G, R110Q, D112Y, G113D
# notes: also called 40; not shown: tags (HA, His) implied by anti-HA detection and nickel column
# B13: Nanobody No. 9 (VHH)
# VHH: QVQLQESGGGSVQAGETLRLSCTASGFTFDDSDMGWYRQAPGSECELVSTISSDGNTYYSNSVKGRFTISQDNAKNTVYLQMNSLKPEDTAVYYCAADDQHYELGTCEALDYWGRGTQVTVSS
# notes: camel VHH from pMECs phage display vector; also called Antibody no; not shown: tags (HA, His) implied by anti-HA detection and nickel column
# B14: Nanobody No. 10 (VHH)
# VHH: B13 VHH with R19K, D33T, G35A, S43N, E46K, N56S, S60A, N61D, H101N
# notes: camel VHH from pMECs phage display vector; also called Antibody no; 10; not shown: tags (HA, His) implied by anti-HA detection and nickel column
# B15: Nanobody No. 29 (VHH)
# VHH: QVQLQESGGGSVQAGGSLRLSCTASGFTFDDLDMRWYRQAPGNECELVSIINSDGRTYYADSVKGRFAISQNNAKNTVYLQMNSLKPEDTAVYYCAADQHRYGLGTCEALDYWGRGTQVTVSS
# notes: also called 29; not shown: tags (HA, His) implied by anti-HA detection and nickel column
# B16: Nanobody No. 18 (VHH)
# VHH: QVQLQESGGGSVQAGQTLRLSCTASGFTFDDSDMAWYRQAPGNECELVSKMRSDGSTYYADSVKGRFTISQDNAKNTVYLQMNSLKPEDTAVYYCAEDLPYGLGTCTSLDYWGRGTQVTVSS
# notes: also called 18; not shown: tags (HA, His) implied by anti-HA detection and nickel column
# B17: Nanobody No. 38 (VHH)
# VHH: QVQLQESGGGSVQAGGSLRLSCAASGFTYTGYCMGWFRQAPGKEREGVATVDSDGDTSYADSVKGRFTISKDNAKNTLYLQMNSLKPEDTAMYYCAADFSRWHLCSTSLATLGYWGQGTQVTVSS
# notes: also called 38; not shown: tags (HA, His) implied by anti-HA detection and nickel column
# B18: Nanobody No. 5 (VHH)
# VHH: QVQLQESGGGSVQAGGSLRLSCTVSGFSFDDSDMGWYRRAPGNECELVSGISRDGSTYYADSVKGRFTISQDNAKNWVYLQMNSLKPEDTAVYYCAAATYSDYVCDYWTQGTQVTVSS
# notes: as for B10
# B19: Nanobody No. 27 (VHH)
# VHH: QVQLQESGGGSVQAGETLRLSCTASGFTFDDSDMGWYRQAPGNECELVSTISSDGSTYYADSVKGRFTISQDNAKNTVYLQMNSLKPEDTAVYYCAADHGGGYELGTCAALDYWGRGTQVTVSS
# notes: also called 27; not shown: tags (HA, His) implied by anti-HA detection and nickel column
# B20: Nanobody No. 33 (VHH)
# VHH: QVQLQESGGGSVQAGGSLRLSCTASGFTFDDVDMGWYRQAPGNECELVSTISSDGSTYYADSVKGRFTISQDNAKNTVYLQMNSLKPEDTAMYYCAAARYSDYEGMCGYWSQGTQVTVSS
# notes: also called 33; not shown: tags (HA, His) implied by anti-HA detection and nickel column
# B21: Nanobody No. 32 (VHH)
# VHH: B20 VHH with P41S
# notes: also called 32; not shown: tags (HA, His) implied by anti-HA detection and nickel column
# B22: Nanobody No. 35 (VHH)
# VHH: B20 VHH with S11L, A14P, T23A
# notes: also called 35; not shown: tags (HA, His) implied by anti-HA detection and nickel column
# B23: Nanobody No. 37 (VHH)
# VHH: B20 VHH with G16E, S17T, A24V, V32A, E44Q, S56I, I69V
# notes: also called 37; not shown: tags (HA, His) implied by anti-HA detection and nickel column
# B24: Nanobody No. 34 (VHH)
# VHH: B20 VHH with A24V
# notes: also called 34; not shown: tags (HA, His) implied by anti-HA detection and nickel column
# B25: Nanobody No. 36 (VHH)
# VHH: B20 VHH with G16E, T23R, A24T, T28S
# notes: also called 36; not shown: tags (HA, His) implied by anti-HA detection and nickel column
# B26: Nanobody No. 6 (VHH)
# VHH: QVQLQESGGGSVQAGETLRLSCTASGFTFDDSDMGWYRQAPGNECELVSHISSDGSTYYADSVKGRFTISQDNAKNTVFLQMNSLKPEDTAVYYCAADKDARGYELGTCESLDYWGRGTQVTVSS
# notes: as for B10
# B27: Nanobody No. 7 (VHH)
# VHH: B26 VHH with H50T, F79Y
# notes: as for B10
# B28: Nanobody No. 31 (VHH)
# VHH: QVQLQESGGGSVQAGETLRLSCTASGFTFNDSNMGWYRQAPGHECELVSTISSDGSTYYADSVKGRFTISQNNARNTVYLQMNSLKPEDTAVYYCAGDWGYELGICTSLDYWGQGTQVTVSS
# notes: also called 31; not shown: tags (HA, His) implied by anti-HA detection and nickel column
# What was measured:
# [1] = target: T1, human Her2 (ECD)-Fc protein (human, UniProt P04626 23-652); assay: PE-ELISA, crude extract on antigen-coated plate
# T1 construct: extracellular domain; Made in HEK293F cells; also called hHer2 (ECD)-Fc antigen; Her2 (ECD)-Fc antigen; not shown: TEV restriction site at the C-terminal of hHer2 (ECD); IgG1 Fc of the pFUSE-IgG1 vector
# Protocol: (§1) (1) 10 μg Her2 (ECD)-Fc antigen (10 μg Fc in NaHCO₃ as control) dissolved in 100 mM NaHCO₃ (pH 8.2) was coupled to a NUNC plate then incubated at 4° C. overnight.
# (§2) (5) The unbound antibody was washed off with PBST.
# (§3) (6) When the OD value of the sample was over 3 times of the OD value of the control sample (Ratio+/−>3), the tested sample was determined to be a positive clone. […] Then all the positive clones were transferred to LA medium for plasmid extraction and sequencing.
# [2] = target: T1, human Her2 (ECD)-Fc protein; assay: PE-ELISA, A405 of antigen well over control well
# Protocol: as §1, §2, §3
# [3] = target: T2, human HER2 antigen protein (human, UniProt P04626 23-652); assay: Biacore, Her2 immobilised on CM-5 chip
# T2 construct: Antigen coated in the ELISA of Embodiment 5 and immobilised on the CM-5 chip in Embodiment 7; Embodiment 7 says only 'antigen protein Her2' without species or construct; also called antigen protein Her2
# Protocol: (1) Immobilization: the stationary phase antigen protein Her2 was immobilized on the surface of CM-5 sensor chip by carboxyl amino reaction.
# (3) Chip regeneration: when next antibody was determined, the chip was washed with 10 mM Glycine.
# [4] = target: T3, Her2 on cells (BT474, high expression; MDA-MB-231, low expression) (UniProt P04626 23-1255, limits assumed); assay: flow cytometry on BT474 cells (high Her2), anti-HA Alexa Fluor488
# T3 construct: whole, on cells; Endogenous Her2 of tumour cell lines
# Protocol: (§4) (3) Cells were divided into 96-well plates after washing, where number of cells per sample was 3×10⁵. The dilute nanobodies were then added to each well, mixed and placed at 4° C. for 20 min.
# (§5) (4) Cells were washed twice with PBS and resuspended with 100 uL PBS. […] Mouse anti-HA Alexa Fluor488 labeled antibody was then added to each sample, mixed and placed at 4° C. for 20 min.
# (§6) (5) Cells were washed twice with PBS and then resuspended to the flow tube with 300 uL PBS. Samples were kept on ice in dark condition. Detection was held via machine.
# [5] = target: T3, Her2 on cells (BT474, high expression; …); assay: flow cytometry on MDA-MB-231 cells (low Her2), anti-HA Alexa Fluor488
# Protocol: as §4, §5, §6
Binder,A405+ [1] [A405],Ratio(+/-) [2],Kd [3] [nM],koff [3] [s⁻¹],kon [3] [M⁻¹ s⁻¹],positive rate [4] [%],positive rate [5] [%]
B1,1.77,19.6,,,,,
B2,2.68,23.7,,,,,
B3,1.97,22.4,,,,,
B4,2.09,20.3,,,,,
B5,1.88,23.8,6.68,0.00421,631000,99.9,12.3
B6,1.9,21.1,1.31,0.00112,857000,99.9,16.7
B7,1.77,17.1,3.73,0.00255,682000,99.9,11.5
B8,2.24,25.1,1.18,0.0015,1.27e+06,99.9,14.2
B9,1.78,21.3,1.98,0.0019,957000,99.7,5.8
B10,1.97,21.2,,,,,
B11,1.86,17.8,,,,,
B12,1.57,19.1,,,,,
B13,2.15,24.3,3.6,0.00397,1.11e+06,99.8,9.5
B14,1.63,22.4,6.47,0.00457,706000,99.7,10.6
B15,1.48,18.8,,,,,
B16,1.59,19.2,,,,,
B17,2.14,21.8,,,,,
B18,1.1,12.7,,,,,
B19,1.66,20.5,,,,,
B20,2.05,21.3,,,,,
B21,2.36,25.3,,,,,
B22,1.99,21,,,,,
B23,2.1,19.6,,,,,
B24,2.26,20,,,,,
B25,2.22,21.6,,,,,
B26,2.14,23.4,,,,,
B27,2.24,27.4,,,,,
B28,1.65,21.4,,,,,
